Assay results: US20240117018A1

Tests used:
Assay in all cases: cell-based or functional assay
[1] = target: HIV-1 Env of pseudovirus 191084 B7-19 (HIV-1)
[2] = target: HIV-1 Env of pseudovirus 3103.v3.c10 (HIV-1)
[3] = target: HIV-1 Env of pseudovirus 3301.v1.c24 (HIV-1)
[4] = target: HIV-1 Env of pseudovirus 3365.v2.c2 (HIV-1)
[5] = target: HIV-1 Env of pseudovirus 620345.c01 (HIV-1)
[6] = target: HIV-1 Env of pseudovirus 6480.v4.c25 (HIV-1)
[7] = target: HIV-1 Env of pseudovirus 928-28 (HIV-1)
[8] = target: HIV-1 Env of pseudovirus C2101.c01 (HIV-1)
[9] = target: HIV-1 Env of pseudovirus C4118.c09 (HIV-1)
[10] = target: HIV-1 Env of pseudovirus P1981_C5_3 (HIV-1)
[11] = target: HIV-1 Env of pseudovirus T250-4 (HIV-1)
[12] = target: HIV-1 Env of pseudovirus T251-18 (HIV-1)

| Substance | neutralization IC50 [1] | neutralization IC80 [1] | neutralization MPI [1] | neutralization IC50 [2] | neutralization IC80 [2] | neutralization MPI [2] | neutralization IC50 [3] | neutralization MPI [3] | neutralization IC50 [4] | neutralization IC80 [4] | neutralization MPI [4] | neutralization IC50 [5] | neutralization IC80 [5] | neutralization MPI [5] | neutralization IC50 [6] | neutralization IC80 [6] | neutralization MPI [6] | neutralization IC50 [7] | neutralization IC80 [7] | neutralization MPI [7] | also measured |
| --- | --- | --- | --- | --- | --- | --- | --- | --- | --- | --- | --- | --- | --- | --- | --- | --- | --- | --- | --- | --- | --- |
| N49P19 (antibody) | 0.357 µg/mL | 1.34 µg/mL | 100 | > 50 µg/mL | > 50 µg/mL | 0 | 0.302 µg/mL | 98 | 0.579 µg/mL | 2.09 µg/mL | 99 | > 50 µg/mL | > 50 µg/mL | 0 | 3.04 µg/mL | 28.2 µg/mL | 87 | 2.73 µg/mL | 9.63 µg/mL | 97 | neutralization IC80 [3]: 1.42 µg/mL; neutralization IC50 [8]: 0.978 µg/mL; neutralization IC80 [8]: 4.19 µg/mL; neutralization MPI [8]: 100; neutralization IC50 [9]: 0.386 µg/mL; neutralization IC80 [9]: 1.36 µg/mL; neutralization MPI [9]: 100; neutralization IC50 [10]: 20.2 µg/mL; neutralization IC80 [10]: > 50 µg/mL; neutralization MPI [10]: 68; neutralization IC50 [11]: > 50 µg/mL; neutralization IC80 [11]: > 50 µg/mL; neutralization MPI [11]: 7; neutralization IC50 [12]: 0.938 µg/mL; neutralization IC80 [12]: 4.2 µg/mL; neutralization MPI [12]: 100 |
| N49P9 (antibody) | 0.042 µg/mL | 0.129 µg/mL | 100 | 17.6 µg/mL | > 50 µg/mL | 55 | 0.072 µg/mL | 100 | 0.059 µg/mL | 0.198 µg/mL | 100 | > 50 µg/mL | > 50 µg/mL | 9 | 0.017 µg/mL | 0.047 µg/mL | 100 | 0.094 µg/mL | 0.339 µg/mL | 100 | neutralization IC50 [8]: 0.051 µg/mL; neutralization IC80 [8]: 0.209 µg/mL; neutralization MPI [8]: 100; neutralization IC50 [9]: 0.072 µg/mL; neutralization IC80 [9]: 0.2 µg/mL; neutralization MPI [9]: 100; neutralization IC50 [10]: 0.308 µg/mL; neutralization IC80 [10]: 0.701 µg/mL; neutralization MPI [10]: 100; neutralization IC50 [11]: > 50 µg/mL; neutralization IC80 [11]: > 50 µg/mL; neutralization MPI [11]: 25; neutralization IC50 [12]: 0.147 µg/mL; neutralization IC80 [12]: 0.517 µg/mL; neutralization MPI [12]: 100 |
